This note sets out measurements from patent publication US20220089663A1, “PROTEINS AND FLUOROPHORE-CONTAINING COMPOUNDS SELECTIVE FOR NaV1.7” (MEMORIAL SLOAN KETTERING CANCER CENTER, priority 2019, published 2022).

Where only a bound is given, the exact number is not on record here.

What all share (experiment): cell-based or functional assay
In test [1] the target is hNav1.4 (human) (UniProt P35499).
Test [2] deals with hNav1.7 (human) (UniProt Q15858).
For test [3], the target named is hNav1.5 (human) (UniProt Q14524).
The target in test [4] is hNav1.3 (human) (UniProt Q9NY46).
The target of test [5] is hNav1.1 (human) (UniProt P35498).
Test [6] addresses hNav1.2 (human) (UniProt Q99250).
Test [7] concerns the target hNav1.6 (human) (UniProt Q9UQD0).

Turning to synthetic Hsp1a (peptide), the fold selectivity of hNav1.7 over this channel in test [1] is more than 100 fold; in test [3], more than 100 fold; in test [4] it was more than 100 fold; in test [5], 40 fold; in test [6], 28 fold; in test [7], more than 100 fold. The pIC50, whole-cell patch clamp (QPatch 16X) in test [1] is less than 6 M; in test [2], 7.98 M; in test [3], less than 6 M; in test [4], less than 6 M; in test [5], 6.39 M; in test [6], 6.52 M. This substance also returned a pIC50, whole-cell patch clamp (QPatch 16X) in test [7] of less than 6 M. Further, the recovery of currents after washout in test [2] was 10 min.

On to µ-theraphotoxin-Hsp1a (peptide), for which the IC50, automated whole-cell patch clamp in test [2] was 13 nM.
